Data: publication PMC10374912 (Nature Communications, 2023)

Biological target: T1, Rtg3-6XHis (recombinant, co-expressed with Rtg1) (C. albicans, UniProt A0A1D8PF20 1-520)
T1 construct: Rtg3, basic helix-loop-helix transcription factor of Candida albicans; also called tagged Rtg3; Rtg3X6his; source: E. coli BL21(DE3), co-expressed with Rtg1 from pColaDuet (pLC1452), purified (Ni-NTA, heparin, SEC)
T1 sequence (looked up): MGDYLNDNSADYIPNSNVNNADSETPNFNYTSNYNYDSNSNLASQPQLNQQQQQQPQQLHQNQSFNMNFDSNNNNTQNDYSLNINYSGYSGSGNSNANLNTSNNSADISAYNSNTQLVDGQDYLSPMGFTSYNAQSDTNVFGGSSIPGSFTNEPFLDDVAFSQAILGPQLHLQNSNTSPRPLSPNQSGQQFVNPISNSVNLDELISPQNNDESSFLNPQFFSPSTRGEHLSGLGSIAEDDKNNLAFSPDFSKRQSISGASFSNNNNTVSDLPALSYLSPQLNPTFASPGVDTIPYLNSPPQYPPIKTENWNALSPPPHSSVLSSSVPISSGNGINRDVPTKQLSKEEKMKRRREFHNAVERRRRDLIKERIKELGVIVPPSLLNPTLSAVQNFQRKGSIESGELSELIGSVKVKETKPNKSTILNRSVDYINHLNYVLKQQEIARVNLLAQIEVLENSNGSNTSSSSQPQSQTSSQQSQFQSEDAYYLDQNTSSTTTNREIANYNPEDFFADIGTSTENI
Assay: SEC; Rtg1 and Rtg3-6XHis co-expressed in E. coli, co-purified by Ni-NTA and heparin, then HiLoad 16/600 Superdex 200 pg; 25 mM HEPES-NaOH pH 7.8, 300 mM NaCl, 5% glycerol; ambient temperature; fractions on SDS-PAGE, Coomassie
Conditions: both partners purified

B1: Rtg1 (recombinant, co-expressed with Rtg3-6XHis) (natural protein, C. albicans, UniProt Q5APP3 1-274, looked up)
chain: MSQFGEFYDTYSVENNQQYDTDLNNSTNTPIVQSKQRNDNIIPSINIKQEDFDSVLSGSLDVKKQLSSSLNTAGVGIGSSYGNGGISKPQSRRNSTYIKSHEGSDNEDEDDQNDKDVGNERKRRDNINDKIQELLTLIPSEFFQSNTDNNTKTGTKVVKENSPEDDAVKNSGTKDGKPNKGQILTKSVEYLQYLQNLIDENNRKEVELIMRLKTLELKAANRPSENIPIRIGYTSAEKALGEIGVGPCSEEYFKNVLIKSASTSKSGRRGSTSG
notes: Rtg1, basic helix-loop-helix transcription factor of Candida albicans; untagged; source: E. coli BL21(DE3), co-expressed with Rtg3-6XHis from pColaDuet (pLC1452), purified (Ni-NTA, heparin, SEC)
  stoichiometry N: ~1
